Test results reported in patent publication US5786145A, “Oligonucleotide competitors for binding of HIV RRE to REV protein and assays for screening inhibitors of this binding” (Medical Research Council, priority 1995, dated 1998).
Entries after “also recorded” stand apart in the source; their conditions may differ.

B1: R58 (ssRNA)
RNA: GGGAGACCGGAAUUCUGGGCGCAGUGUCAUUGACGCUGCGAUACAGAAUUCCGGCA
modifications: [none]
B2: R53 (ssRNA)
RNA: GGGAGACCGGAAUUCUGGGCGCAGUGUCAUUGACGCUGCGGUGCAGAAUUCCGGCA
modifications: [none]
B3: R47 (ssRNA)
RNA: GGGAGACCGGAAUUCUGAGCGCAGUGUCAUUGACGCUGCGGUACAGAAUUCCGGCA
modifications: [none]
B4: R56 (ssRNA)
RNA: GGGAGACCGGAAUUCUGGGUGCAGUGUCAUUGACGCUGCAGUACAGAAUUCCGGCA
modifications: [none]
B5: R41 (ssRNA)
RNA: GGGAGACCGGAAUUCUGGGGGCAGUGUCAUUGACGCUGCCGUACAGAAUUCCGGCA
modifications: [none]
B6: R40 (ssRNA)
RNA: GGGAGACCGGAAUUCUCGGCGCAGUGUCAUUGACGCUGCGGUAGAGAAUUCCGGCA
modifications: [none]
B7: R49 (ssRNA)
RNA: GGGAGACCGGAAUUCUGGGCGCAGUGUCAUUGACGCUGCGUACAGAAUUCCGGCA
modifications: [none]
B8: R45 (ssRNA)
RNA: GGGAGACCGGAAUUCUGGGCGCAGUGUCAUUGACGCUGCGGACAGAAUUCCGGCA
modifications: [none]
B9: R46 (ssRNA)
RNA: GGGAGACCGGAAUUCUGGGCGCAGUGUCAUUGACGCUGCGGUCAGAAUUCCGGCA
modifications: [none]
B10: R36 (dG59-A61) (ssRNA)
RNA: GGGAGACCGGAAUUCUGGGCGCAGUGUCAUUGACGCUGCGCAGAAUUCCGGCA
B11: R34 (dG35-G36) (ssRNA)
RNA: GGGAGACCGGAAUUCUGCGCAGUGUCAUUGACGCUGCGGUACAGAAUUCCGGC
B12: R37 (ssRNA)
RNA: GGGAGACCGGAAUUCUAAACGCAGUGUCAUUGACGCUGCGGUAUAGAAUUCCGGCA
B13: 1-96: RRE fragment 1-96 T7 transcript (nucleic acid)
chain: GGGAGACCGGAAUUCCCUUGGGUUCUUGGGAGCAGCAGGAAGCACUAUGGGCGCAGUGUCAUUGACGCUGACGGUACAGGCCAGACAAUUAUUGUCUGGUAUAGUGCAACA
modifications: unmodified RNA
notes: RRE fragment 1-96 T7 transcript
B14: 26-92: RRE fragment 26-92 T7 transcript (nucleic acid)
chain: GGGAGACCGGAAUUCAGCACUAUGGGCGCAGUGUCAUUGACGCUGACGGUACAGGCCAGACAAUUAUUGUCUGGUAUAGUGCA
modifications: unmodified RNA
notes: RRE fragment 26-92 T7 transcript
B15: 26-72: RRE fragment 26-72 T7 transcript (nucleic acid)
chain: GGGAGACCGGAAUUCAGCACUAGGGCGCAGUGUCAUUGACGCUGAGGGUACAGGCCAGACAAUUAUA
modifications: unmodified RNA
notes: RRE fragment 26-72 T7 transcript

What follows are molecules tested against T1, HIV-1 Rev (Human immunodeficiency virus 1, UniProt P04618 P04618:1-116) (assay: filter; non-specific binding only). Conditions: tags: none stated; heparin-Sepharose and Superose 6 purified; chain copies: oligomer (tetramer likely; about 4 per RBC6, 6-8 per full-length RRE at 50 mM KCl) stated; label: 32P uniform.
With B1 the binding signal was 6 % RNA bound at 10 nM rev. Molecule B2 has a binding signal of 5 % RNA bound at 10 nM rev. With B3 the binding signal was 6 % RNA bound at 10 nM rev. In the case of B4, the binding signal is reported as 6 % RNA bound at 10 nM rev. With B5 the binding signal was 2 % RNA bound at 10 nM rev. For B6, the binding signal was 3 % RNA bound at 10 nM rev. With B7 the binding signal was 2 % RNA bound at 10 nM rev. B8 gave a binding signal of 6 % RNA bound at 10 nM rev. In the case of B9, the binding signal is reported as 1 % RNA bound at 10 nM rev.

Same assay, conditions: tags: none stated; heparin-Sepharose and Superose 6 purified; chain copies: oligomer (tetramer likely; about 4 per RBC6, 6-8 per full-length RRE at 50 mM KCl) stated; label: 32P uniform; stem-loop with G,G bulge
B10 gave a binding signal of 4 % RNA bound at 10 nM rev.

Same assay, conditions: tags: none stated; heparin-Sepharose and Superose 6 purified; chain copies: oligomer (tetramer likely; about 4 per RBC6, 6-8 per full-length RRE at 50 mM KCl) stated; label: 32P uniform; stem-loop with altered bubble
In the case of B11, the binding signal is reported as 3 % RNA bound at 10 nM rev. B12 gave a binding signal of 5 % RNA bound at 10 nM rev.

These molecules were tested against T1, HIV-1 Rev (assay: competition; D1/2 vs labelled RRE RNA, 17 nM rev). Conditions: tags: none stated; heparin-Sepharose and Superose 6 purified; chain copies: oligomer (tetramer likely; about 4 per RBC6, 6-8 per full-length RRE at 50 mM KCl) stated; label: 32P uniform; stem-loop with altered bubble.
Molecule B11 has an IC50 greater than 250 nM.

These molecules were tested on rev protein (assay: Saturation filter binding of rev to labelled RNA transcripts). Conditions: Table I; 10 nM rev, 50 mM KCl.
Set-up: species or system HIV-1
Method: Rev protein was expressed and purified as described (33) or further purified by chromatography on Heparin-Sepharose. Rev was applied to Heparin columns in a buffer containing 200 mM NaCl/50mM Tris-HCl pH8.0/1 mM DTT/0.1 mM EDTA 0.1% Triton X-100 and eluted in buffer containing 2M NaCl. After gel filtration on Superose 6 (prep grade) columns equilibrated with 200 mM NaCl/50 mM Tris-HCl pH8.0/1 mM DTT/0.1 mM EDTA, the rev protein appeared homogeneous on SDS-polyacrylamide gels and free of RNA contaminants. Rev concentrations were determined by amino acid analysis of the purified protein.
DNA inserts containing RRE-related sequences were cloned between the EcoRI (5') and HindIII (3') sites of pGEM 1, either by cloning PCR products or by cloning annealed pairs of synthetic oligonucleotides. RNA transcripts for binding experiments were prepared by transcription of HindIII cut plasmids using T7 RNA polymerase and purified by gel electrophoresis. These transcripts carry a 5' extension of 15 nucleotides contributed by the vector and an extra A residue at the 3' end from the HindIII site, as described above.
For filter binding assays, each reaction mixture contained 20 pg of uniformly labelled RNA probe (approximately 500 cpm/pg RNA), […] sonicated salmon sperm DNA, […] yeast tRNA, 40 units RNasin (Promega) in […] TK buffer (43 mM Tris-HCl pH8.0, 50 mM KCl). Incubation was at 4° C. for 15 minutes in the presence of 0 to 10 nM purified rev protein. To measure binding, each reaction mixture was applied under gentle vacuum to a 0.45 um Millipore filter which had been pre-wetted with TK buffer. The filters were washed with […] TK buffer, dried, and radioactivity counted by liquid scintillation.
Filter binding assays contained 20 pg uniformly labelled RNA probe (500 dpm per pg RNA), 1 μg salmon sperm DNA, 0.45 μg yeast tRNA and 40 units RNasin (Promega) in 500 μl buffer containing 43 mM Tris-HCl pH 8.0, 50 mM KCl. Mutations in the purine-rich "bubble" sequence (numbered as shown in FIG. 2) were introduced into the R33 stem-loop structure (FIG. 3d) by site-directed mutagenesis.
With “R36 (GGGAGACCGGAAUUCUGGGCGCAGUGUCAUUGACGCUGCGCAGAAUUCCGGCA; chemistry not given here)” the “% RNA bound (10 nM rev)” value was 4%. In the case of “R37 (GGGAGACCGGAAUUCUAAACGCAGUGUCAUUGACGCUGCGGUAUAGAAUUCCGGCA; chemistry not given here)”, the “% RNA bound (10 nM rev)” value is reported as 5%.

Same assay, conditions: saturation filter binding of T7 transcripts; read-out: Kd for rev binding
“R38: stem-loop structure C39 to A56 replaced by the stable loop sequence CUUCGG (GGGAGACCGGAAUUCUGGGCGCUUCGGCGGUACAGA; chemistry not given here)” gave a Kd of 1 to 3 nM. “R22: residue A56 is deleted from R20 (GGGAGACCGGAAUUCUGGGCGCAGUGUCAUUGACGCUGCGGUACAGGCA; chemistry not given here)” gave a Kd of 1 to 3 nM. Molecule “R19: transcript containing RRE sequences 33 to 66 (GGGAGACCGGAAUUCUGGGCGCAGUGUCAUUGACGCUGACGGUACAGGCA; unmodified RNA)” has a Kd of 1 to 3 nM.

Same assay, conditions: saturation filter binding, 0 to 10 nM rev
“R30: base pairing in the upper stem structure altered to give the anti-sense sequence (GGGAGACCGGAAUUCUGGGCGCAGCGUCAUUGACACUGCGGUACAGGCA; chemistry not given here)” was tested, and the “rev binding, result in words” value was “normal rev binding activity”. For “R36 (GGGAGACCGGAAUUCUGGGCGCAGUGUCAUUGACGCUGCGCAGAAUUCCGGCA; chemistry not given here)”, the “rev binding, result in words” value was “loss of rev binding”. “R29: residues altered in the apex of the loop to give the anti-sense sequence (GGGAGACCGGAAUUCUGGGCGCAGUGUCAAUGACGCUGACGGUACAGGCA; chemistry not given here)” was tested, and the “rev binding, result in words” value was “normal rev binding activity”. With “R37 (GGGAGACCGGAAUUCUAAACGCAGUGUCAUUGACGCUGCGGUAUAGAAUUCCGGCA; chemistry not given here)” the “rev binding, result in words” value was “abolished specific rev binding”. B13 was tested, and the “rev binding, result in words” value was “same affinity as the full-length RRE sequence”. In the case of B14, the “rev binding, result in words” value is reported as “same affinity as the full-length RRE sequence; also recorded: Identical binding behaviour”. With B15 the “rev binding, result in words” value was “does not bind rev”.

These molecules were tested on rev protein (assay: Competition filter binding against 32P-labelled R7 (FIGS. 13, 17)). Conditions: 1.5 nM labelled R7, 24 nM rev, 0-60 nM competitor.
Set-up: species or system HIV-1
Method: In these experiments, uniformly ^32 P-labelled R7 (1.5 nM) was competed against 0-60 nM unlabelled competitor RNA in the presence of 24 nM rev protein.
The mixtures for competition binding (0.5 ml) included 1.5 nM ^32 P-labelled R7 (ca. 20,000 cpm), 24 nM rev protein, 1.5 ug/ml calf thymus DNA, 0.67 ug/ml yeast rRNA, varying concentrations (0-60 nM) of unlabelled competitor RNA and 80 units/ml RNasin in TK buffer (50 mM Tris-HCl (pH7.9) and 20 mM KCl). Binding was allowed to take place for more than 15 min on ice, and each mixture was passed through a Millipore GS filter (a 2.5 cm disk with a pore size of 0.22 um) prewashed twice with 0.6 ml of ice-cold TK buffer. The filter was washed with 0.6 ml of cold TK buffer and dried. The radioactivity retained on the filter was counted by liquid scintillation, and the results were plotted on a graph (FIG. 13).
For “TWJ-U: three annealed synthetic oligoribonucleotides forming three-way junction; authentic HIV-1ARV2 sequence with G:U base pair (chain 1 GCACUAUGGGCGCAGC; chain 2 GCUGCGGUACAGGCCAGA; chain 3 UCUGGUAUAGUGC; RNA, backbone not given here)”, the “competition for rev binding against labelled R7, result in words” value (“competition for rev binding” below) was “compete for rev binding with the same affinity”. With “RBC4: chemically synthesized RNA duplex, purine-rich bubble with 4 base pairs in the stem on each side (chain 1 UGUGGGCGCA; chain 2 UGCGGUACAC; RNA, backbone not given here)” the “competition for rev binding” value was “no competitive binding abilities”. In the case of “RBC2-6X: only two oligonucleotides annealed, containing all sequences from the bubble region (chain 1 GCACUAUGGGCGCAGC; chain 2 GCUGCGGUACAGGCCAGA; chemistry not given here)”, the “competition for rev binding” value is reported as “not sufficiently stable to form an effective rev binding site”. With “TWJ-C: three annealed synthetic oligoribonucleotides forming bubble stabilized by three-way junction; U85 replaced by C (chain 1 GCACUAUGGGCGCAGC; chain 2 GCUGCGGUACAGGCCAGA; chain 3 UCUGGCAUAGUGC; RNA, backbone not given here)” the “competition for rev binding” value was “compete for rev binding with the same affinity”. With “RBC5: chemically synthesized RNA duplex, purine-rich bubble with 5 base pairs on each side (chain 1 GUGUGGGCGCAG; chain 2 CUGCGGUACACA; RNA, backbone not given here)” the “competition for rev binding” value was “less”.

Same assay, conditions: 1.5 nM labelled R7, 24 nM rev, 0-60 nM competitor; listed as RBC2,6X
“RBC2-6X: only two oligonucleotides annealed, containing all sequences from the bubble region (chain 1 GCACUAUGGGCGCAGC; chain 2 GCUGCGGUACAGGCCAGA; chemistry not given here)” was tested, and the “competition for rev binding” value was “unable to compete effectively”.
